Measured values: paper PMC8261865, “A Structural View on the Stereospecificity of Plant Borneol‐Type Dehydrogenases” (Chemcatchem, 2021)
Each block holds one molecule with its values, some of them ahead of it.

Columns and labels:
AaADH2 = target: T1, AaADH2 (Artemisia annua, UniProt E5DD06); assay: spectrophotometric cofactor use; assay type: biochemical
T1 construct: gene Adh2
T1 sequence (E5DD06 1-265): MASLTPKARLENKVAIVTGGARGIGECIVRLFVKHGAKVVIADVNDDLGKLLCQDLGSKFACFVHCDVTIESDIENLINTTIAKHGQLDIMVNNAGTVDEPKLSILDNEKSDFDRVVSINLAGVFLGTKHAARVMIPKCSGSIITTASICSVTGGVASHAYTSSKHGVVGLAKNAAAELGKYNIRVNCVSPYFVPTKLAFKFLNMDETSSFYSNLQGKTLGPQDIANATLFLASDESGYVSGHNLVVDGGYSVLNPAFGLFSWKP

SrBDH1 = target: T2, SrBDH1 (Salvia rosmarinus, UniProt A0A8K1HPF5); assay: X-ray crystal structure of binary complex ([…] Å); assay type: binding; conditions: NAD+ co-purified with the enzyme; two crystal forms (high salt; PO/OH)
T2 construct: N-terminal His-tag (pET15b), codon-optimised, E. coli BL21(DE3); homotetramer by SEC/MALS
T2 sequence (A0A8K1HPF5 1-270): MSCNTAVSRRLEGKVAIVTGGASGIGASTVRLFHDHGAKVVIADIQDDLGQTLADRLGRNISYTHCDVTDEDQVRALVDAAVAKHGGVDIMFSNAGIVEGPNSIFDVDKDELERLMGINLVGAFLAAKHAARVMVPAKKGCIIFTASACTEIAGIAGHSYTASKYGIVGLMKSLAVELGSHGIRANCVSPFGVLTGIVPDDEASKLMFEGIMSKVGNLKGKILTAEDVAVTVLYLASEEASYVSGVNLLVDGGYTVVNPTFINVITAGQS

[1] = target: Borneol-type dehydrogenase 1 from Salvia rosmarinus (Salvia rosmarinus); assay: SEC; HiLoad 16/60 Superdex 200; Tris-HCl 100 mM, 500 mM NaCl, pH 8; 1 mL/min; calibrated with mass standards (44-440 kDa)
[2] = target: Borneol-type dehydrogenase 1 from Salvia rosmarinus (Salvia rosmarinus); assay: SEC-MALS; Superdex 200 increase 10/300 with miniDAWN TREOS and refractive index detector; 18 °C
[3] = target: Borneol-type dehydrogenase 1 from Salvia rosmarinus (Salvia rosmarinus); assay: crystal structure; sitting-drop vapor diffusion at 18 °C; two conditions: high NaCl (2.7-3.2 M, Bis-Tris pH 5.5-7.2) and pentaerythritol propoxylate (PO/OH, HEPES pH 7.0-7.8); tetramer in both
[4] = target: Borneol-type dehydrogenase 2 from Salvia rosmarinus (Salvia rosmarinus); assay: SEC; HiLoad 16/60 Superdex 200; Tris-HCl 100 mM, 500 mM NaCl, pH 8; 1 mL/min; calibrated with mass standards (44-440 kDa)
[5] = target: Borneol-type dehydrogenase 3 from Salvia officinalis (Salvia officinalis L.); assay: as above

stoichiometry N [1]: 4
stoichiometry N [2]: 4
stoichiometry N [3]: 4
Molecule: Borneol-type dehydrogenase 1 from Salvia rosmarinus (enzyme)

stoichiometry N [4]: 4
Molecule: Borneol-type dehydrogenase 2 from Salvia rosmarinus (enzyme)

stoichiometry N [5]: 4
Molecule: Borneol-type dehydrogenase 3 from Salvia officinalis (enzyme)

Second part, the molecule before the results:

Molecule: NC(=O)c1ccc[n+]([C@@H]2O[C@H](COP(=O)(O)OP(=O)(O)OC[C@H]3O[C@@H](n4cnc5c(N)ncnc54)[C@H](OP(=O)(O)O)[C@@H]3O)[C@@H](O)[C@H]2O)c1 [NADP^+]
spectrophotometric cofactor use (AaADH2): AaADH2 was the only enzyme also capable of using NADP^+

Molecule: NC(=O)c1ccc[n+]([C@@H]2O[C@H](COP(=O)(O)OP(=O)(O)OC[C@H]3O[C@@H](n4cnc5c(N)ncnc54)[C@H](O)[C@@H]3O)[C@@H](O)[C@H]2O)c1 [NAD^+]
X-ray crystal structure of binary complex (2.8 Å) (SrBDH1): the structure represents the binary complex (SrBDH1 ⋅ NAD^+ /high salt)
